Assay results reported in the domain aggregation screens of Martell et al. (2025).

assay: soluble fraction after stress (log2 fold change); higher = more stays soluble; pooled small domains, quantitative proteomics; settings: stress: pH 4
Procedure, shortened: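 High-throughput quantitative proteomics was run on pooled custom libraries of small protein domains following pH 4 stress. Fold changes are on a log2 scale; higher values mean more of a domain remained soluble. The fold change in soluble amount is taken as a measure of aggregation propensity.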

Row | Sequence | soluble fraction (log2)
1 | HMAADWTAIKLAYVNGGMSMRELAQRFHVGAAGLMKRAAKEGWEAERQQNSAKVSNAAQMLIN | 0.125
2 | HMAAEEAFPGGRIVQNAEENRLQILFDEIPGEDVRAALKSHGFRWSPKNKAWQRQLTQNAEYDARRILGI | -0.033
3 | HMAAEELTVDKILTAQSFGVTAEAILAKVNDPANTVATLTQADVDRLRAAGVPEGVVTALQARAPQ | -0.155
4 | HMAAENAVGARVKALREAMDLSLRDLSERSGVSPTMLSQVERGSTSPTLAVAEKIAAGLDLSLSQLLRL | 0.124
5 | HMAAGADEATTVPNVSGDTLNQAIKSLKAEGLGYMLSGAGARVRDQMPEPGAEMTKGSVVMLYMDGDAEVD | 0.399
6 | HMAAGVESLTEKEFAVASLVGGGASNREIAERLAMSERTVKSHLSSIFRKMDVRDRVQLALAMND | -0.0425
7 | HMAAIPATVDEETYRRLKPMLKQYGILYHEFKPLRSGKKGAVELIFMEKDLALVQELLSRLKKEK | -0.0159
8 | HMAAIPEQVSEEVVSAVKASGIDPGKVTKEQWTSLLKGRRTALGSSSGKLFMLSKAPVGYTLKAVNA | -0.000834
9 | HMAAMDMFVKLDALDAELTEQLKALPAEPDDARVERGLALLTDYDHRIKALLTEIFGGENDFDKVL | -2.25
10 | HMAAPPPLSDYRNMQEAEHIRNILLQHHGNVRRAAAALELSRPYLYQKMKQLGINIAELRELSLSHSS | 0.161
11 | HMAASEAESIRILLSEGVDRVHLRKPQSAEADMRRLIEALPPELYPRLTLQDHLHLAGEYGT | -0.162
12 | HMAATGPLTPREAEIARLAAGHLSNRQIAEQLVVSERTVENHLYRIFIKLAVTGRDDLAAALAATEQ | -1.17
13 | HMAATNVKVPDLKGWDYNNAVGKYGDKLSFVKKSIYSDSVSKGIIIYNARVGETVAQGTTIEVTVSLGPKG | 0.0127
14 | HMAAVPYQVKITTEDLRIRTGPGTNHDFTGQYTGKGVFTIVEESEGSGAPIWGRLKSGAGWIGIDPSWSVR | -0.524
15 | HMADAGQTTAATELKQAPNAGSATISQLSAGQTLQIGTRQGAWYQVKTPQGEGWVRMLSVRLQ | 0.0688
16 | HMADEGFRQTVLAVLARWESKIHHGQYNALKAKVMNGNWSSFVKQVVKFQGKFIHPDAAKELLGLFG | -1.17
17 | HMADFIKEIKTNNPRQLLKSILSSFMPRALILELEMLLWNDLKSKPIGEWSNTQIENVGKLLNNWILKPAA | 0.164
18 | HMADIWDLLRSEYKLTETDVRMLTDMLPDELMNDFRSEVLALRDRMNRYKVNNPKSYVVTSLKNFIIQHTP | -0.787
19 | HMADKNIIGVLSAADNLGKVRITTANGEKYIITVPDGLSDIVKTYWEEEVSVKYVIEKRRKILVDIDG | -0.47
20 | HMADLIIMSSDATEKQVDKVINKIKNMGFNVNISKGTEKTIIGIIGDTRGISDEVFKIMPGVIEVISILRD | -0.38
21 | HMADLIVFTTDANKEKKVDDETYFYLDVVSDGKLVENYELTEKQYNYIKDLGVGEYVYNEKGKLDSYTAFT | -1.12
22 | HMADPLQLLEQQRQDYIQAVTEYLNSHPNAKPIWDVMKKDAGYGDMKLTDIPLGILKKLYITLT | -0.137
23 | HMADRVFGHIPGVAVGSIFPDRRSLSQTGVHRPTQAGISGNKTDGADSIVVSGGYRDDRDYGDLIIYTG | -0.746
24 | HMADTFVMPDLVYRRYEPVRGYFERGGFHMGAVKFEPYEGISDGTILRQNPLPGHPLRRRDVISLVVAAS | -0.464
25 | HMADYYETLGVERTASEEDIKRAYRKMSRKYHPDIAGPEFEEKFKEVNTAYEVLSDPDKRRMYDAGVDPND | 0.0648
26 | HMADYYSILGLTKNATDIEIKSAFRKLAKIYHPDKNPDPNARVLFEHILKAYDTLINPHSRRRYDSL | 0.22
27 | HMAEELELFHRLISVTGVGPKGALGFLSQLKPQEIILAILSDDVKTLSKAPGVGRKTAQRVILELKDKF | -0.828
28 | HMAEGPYSGKKVEKYPGGMEKRETMYSEGKLTRVTEFHQSGQKKMEVKVDANGQWKRLYWDNNGNPT | -0.086

Row | Sequence | soluble fraction (log2)
29 | HMAEIIVHEINRHLGESDEPVEFPEERREEAVAELLKNFHNDDAFRKMDDGKYEVALDGEAVREAARSLLA | -0.256
30 | HMAELTTVQAADILHVSRPFLIKLLDEGQIPYHRVGKHRRIRMEDVMNYKRAIDQQREAVLDQLVAEA | 0.014
31 | HMAEMLQDVLNMLSAKDREILVRYYYYYESVKQVAAEMQMSESAVKMRMSRARKKMQQELIDKG | -0.704
32 | HMAEPAEDLLSLEGMDKGLAYQLASNGVVTREDLAELATDDLLEIREMDAEQAAALIMKAREHWFEAEQQ | -1.94
33 | HMAEPEALLAMAQRILGEEVAQSLFQGAAREQGKEGYLPDPTPAFLDALEARLSGSVGAATAHAMISQLVG | -0.473
34 | HMAEPSTSYTQFMDQAKEGKIKRVDVQGRTLTVTPTEGATYKITAPGDLWMVEDLRKAGVQVYGQP | 0.076
35 | HMAEPYDERKVMEQMIPKGKNTIVAHLGHLKDHGETGYLQEALSYLRERESELGFDLKEVRALVHN | -0.223
36 | HMAEQVLHQKLAARRKELNSLVAQVARVRGIPHSHVHSGLRREAGGPPLAQATTDQVEARISLARKWLRA | -0.000969
37 | HMAERLQARIDAPGVRLDKALAETFPTLSRARLQALLADGAVTRDGQTVSNGSAKAQPGLYVVALPPVA | 0.316
38 | HMAESNQIQLSDVREALNMIGPASWLDLVHYLDTGKGRGGQRLRRMLKSLSRSGEIELVARGTYQITDN | -0.742
39 | HMAEVALFVNGSDVNLRSGPGQESTRVIGSLNLGDEVRIKSQNGQWREVYVPKTRQVGWVAHWLLSEAPP | -0.527
40 | HMAEVPDLRNKTQQEAEAELTNHNLKLGNVTEEYSATVEAGRVISQSTSYGTKVLEGSSVDITISKGPEPT | 0.156
41 | HMAEWLFDARKIPDEVMNYLRRIAVQAIEEKHYSPELVADLLGISRSSIYDWLNWYRNGGEEDLDTRKA | -0.543
42 | HMAFAQMAQEAAKGKDDFNDLRQEMEAVIKEQPHILLMAQFGQNPYEIAYQEAKRRKAQDQQQQQ | -0.805
43 | HMAFGTGTVTASSLRVREDASTSAATLDTLSKGSKVSVLADEQDGFYKVQIGEQVGYMSAEYLDVTE | -0.269
44 | HMAFKNGLLQTSKKVTLVRKVDGVTMRFDSLRAASVFLGRNKGYLSNVIKNGRTLDNYEIVVGE | 0.0346
45 | HMAFRIGGFVQEGSVVRQQDGGTVRFEVTDTAHSVPVTYKGSLPDLFKEGKGVVAQGKLMNGTFVADQVLA | -0.186
46 | HMAGATDTVRNLLERQIREGELLPGQRLPTEPELAARLGVSRNSLREALQSLEDSGLIVKRHGIGTFVTE | 0.22
47 | HMAGLELVVTREQAGRTVKSLLRGELGISTALMGRLKRTGTGLTVNGTRVFTNAVLREGDRLAVDLDAAE | -0.0613
48 | HMAGLKERLFYFIEYKGLTVQSFEKTVGLSNGAVSKMGDNTRRSTIDKISNFFGDLNKNWLLTGEGEMLI | -0.638
49 | HMAGRKMMVMANNLSVRKSANSLSEKLADLSRGDTVEYISSTNGWNKVRYKGQIGYVSSYYLKDTGEEVE | 0.216
50 | HMAGTKRAENIEIQKLTEVLEARLDSVGFFWPDHKAESMIMTLRNMISRLPLTEADVRVFHGIIKSLADK | -0.727
51 | HMAGTWQDQGNGQWKYQNDDGSYATGWIEDSGKSYYLDANGIMLANTTTPDGKQVGPDGALIP | -1.69
52 | HMAHETIDVAALRVGMFVQLDLGWLSHPFPLSSFRISSEDQIATIRALGLKRVRWSSEQSDS | -2.26
53 | HMAHPRTHEALNPLWEKYLGPNAGNDFFLSGGTSLKALMFLKDLEKTLNKRIAIHAFFKDPTYEHVVSD | -0.467
54 | HMAHTGGNTLTREKAVSVRSASDALLFEIHWNETPREDILSTREEKVDGKTYSIITIRTGKGREDHYYLLS | 0.295
55 | HMAHYPGKVNNELVEFIRSEQRKTPHMTLTGLNRKLQRTYDLTLSESTVRKLVEAETILPLAREPD | 0.217
